Assay results as given in patent publication US20200392228A1 (PANDION OPERATIONS, published 2020).
Changes are numbered by the printed parent chain. Names may count otherwise. Values belong to the binder of their own block, whether it stands above or below them.

Experiments:
CD25 = target: T1, CD25 (Homo sapiens (Human), UniProt P01589 22-240); test: ELISA, plate-bound CD25
T1 construct: also called IL-2R alpha chain
T1 sequence: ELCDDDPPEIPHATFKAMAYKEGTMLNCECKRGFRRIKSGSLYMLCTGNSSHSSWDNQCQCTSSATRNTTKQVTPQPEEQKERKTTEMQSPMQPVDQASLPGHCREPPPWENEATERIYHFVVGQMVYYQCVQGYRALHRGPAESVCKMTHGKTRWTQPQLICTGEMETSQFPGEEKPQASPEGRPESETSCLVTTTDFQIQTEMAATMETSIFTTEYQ
Procedure: An immunosorbent plate was coated with CD25 at a concentration of 0.5 μg/mL in PBS pH 7.4, 75 ul/well, and incubated overnight at 4° C. Wells were washed with PBS pH 7.4 containing 0.05% Tween-20 (wash buffer) three times, and then blocked with 200 ul/well 1% BSA in PBS pH 7.4 (block buffer) for two hours at room temperature. After three washes with wash buffer IL-2M molecules of Example 12 were diluted to eleven—two fold serial dilution in PBS containing 1% BSA and 0.05% Tween-20 (assay buffer) with 2 nM being the highest concentration. The diluted material was added to the CD25 coated plate at 75 ul/well for 1 hour at room temperature. After three washes with wash buffer, a goat biotinylated anti-IL-2 polyclonal antibody, diluted to 0.05 μg/mL in assay buffer, was added to the plate at 75 ul/well for 1 hr at room temperature. After three washes with wash buffer high sensitivity streptavidin HRP diluted in assay buffer at 1:5000 was added to the plate at 75 ul/well for 15 minutes at room temperature. After three washes with wash buffer and 1 wash with wash buffer (with no tween-20), the assay was developed with TMB, and stopped with 1N HCL. OD 450 nm was measured. The experiment included appropriate controls for non-specific binding of IL-2M molecules to the plate/block in the absence of CD25 and a negative control molecule that is unable to bind CD25.

mouse MAdCAM protein = target: T2, mouse MAdCAM protein (mouse, UniProt Q61826 22-365, limits assumed); test: Octet
T2 construct: also called recombinant mouse MAdCAM-1; mMAdCAM-1
T2 sequence (looked up): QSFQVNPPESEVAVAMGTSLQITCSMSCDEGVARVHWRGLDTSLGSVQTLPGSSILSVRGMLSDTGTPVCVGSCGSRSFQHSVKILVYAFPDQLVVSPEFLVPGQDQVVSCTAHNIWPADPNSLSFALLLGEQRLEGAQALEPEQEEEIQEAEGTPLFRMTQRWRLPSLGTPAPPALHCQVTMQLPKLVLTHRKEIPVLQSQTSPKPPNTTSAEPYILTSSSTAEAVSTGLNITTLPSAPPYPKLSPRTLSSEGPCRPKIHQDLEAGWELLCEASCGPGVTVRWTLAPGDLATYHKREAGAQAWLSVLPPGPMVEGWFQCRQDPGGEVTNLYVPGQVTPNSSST

human MAdCAM protein = target: T3, human MAdCAM protein (human, UniProt Q13477 19-317); test: Octet
T3 construct: used for Octet, SPR, ELISA and plate capture; construct not described; also called recombinant human MAdCAM; soluble monomeric human MAdCAM
T3 sequence (looked up): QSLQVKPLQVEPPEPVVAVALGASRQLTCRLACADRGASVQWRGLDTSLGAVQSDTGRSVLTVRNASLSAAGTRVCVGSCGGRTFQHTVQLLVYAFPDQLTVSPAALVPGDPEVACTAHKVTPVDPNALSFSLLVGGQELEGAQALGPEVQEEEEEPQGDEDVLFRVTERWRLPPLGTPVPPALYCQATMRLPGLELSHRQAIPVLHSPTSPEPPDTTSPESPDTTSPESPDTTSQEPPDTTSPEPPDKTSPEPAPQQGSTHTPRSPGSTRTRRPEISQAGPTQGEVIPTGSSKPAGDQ

[1] = target: T4, mouse MAdCAM expressed on cells (mouse, UniProt Q61826 22-405); test: cell binding
T4 construct: whole, on cells
T4 sequence (looked up): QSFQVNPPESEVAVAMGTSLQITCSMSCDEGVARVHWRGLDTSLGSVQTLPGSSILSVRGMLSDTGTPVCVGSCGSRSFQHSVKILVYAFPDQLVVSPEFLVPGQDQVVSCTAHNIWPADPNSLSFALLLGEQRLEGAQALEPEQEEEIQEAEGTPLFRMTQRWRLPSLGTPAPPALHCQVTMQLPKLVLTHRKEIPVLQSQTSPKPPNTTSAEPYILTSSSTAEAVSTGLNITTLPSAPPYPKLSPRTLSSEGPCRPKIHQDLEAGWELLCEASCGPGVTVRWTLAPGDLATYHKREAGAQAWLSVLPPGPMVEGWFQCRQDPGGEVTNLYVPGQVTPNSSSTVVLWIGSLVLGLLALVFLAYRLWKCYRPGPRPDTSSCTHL

[2] = target: T5, human MAdCAM expressed on cells (human, UniProt Q13477 19-382); test: cell binding
T5 construct: whole, on cells; also called MADCAM1
T5 sequence (looked up): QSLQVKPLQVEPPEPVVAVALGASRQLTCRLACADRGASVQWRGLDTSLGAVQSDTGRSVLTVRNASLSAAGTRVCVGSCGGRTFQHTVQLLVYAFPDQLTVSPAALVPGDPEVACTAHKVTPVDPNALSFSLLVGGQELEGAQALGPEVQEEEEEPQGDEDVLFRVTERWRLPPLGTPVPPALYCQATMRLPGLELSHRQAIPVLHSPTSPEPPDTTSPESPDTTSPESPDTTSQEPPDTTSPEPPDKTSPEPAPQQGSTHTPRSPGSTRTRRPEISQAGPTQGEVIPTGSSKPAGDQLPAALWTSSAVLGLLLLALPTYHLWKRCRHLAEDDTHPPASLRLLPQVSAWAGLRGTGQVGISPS

B1: human IL-2M fused N-terminally to human IgG1 Fc domain (SEQ ID NO: 57) (Fc fusion)
chain: APTSSSTKKTQLQLEHLLLDLQMILNGINNYKNPKLTRMLTFKFYMPKKATELKHLQCLEEELKPLEEALNLAPSKNFHLRPRDLISDINVIVLELKGSETTFMCEYADETATIVEFLNRWITFSQSIISTLTGGGGSGGGGSGGGGSGGGGSDKTHTCPPCPAPEAAGAPSVFLFPPKPKDTLMISRTPEVTCVVVDVSHEDPEVKFNWYVDGVEVHNAKTKPREEQYNSTYRVVSVLTVLHQDWLNGKEYKCKVSNKALPAPIEKTISKAKGQPREPQVYTLPPSREEMTKNQVSLTCLVKGFYPSDIAVEWESNGQPENNYKTTPPVLDSDGSFFLYSKLTVDKSRWQQGNVFSCSVMHEALHNHYTQKSLSLSPG
notes: also called IL-2 N88D V69A, Q74P-G4Sx4-Fc
EC50 (CD25): < 1 nM

B3: IL-2M SEQ ID NO: 53 (Fc fusion)
chain: B1 chain with L53I
notes: also called IL-2 L53I N88D V69A, Q74P, C125S-G4Sx4-Fc
EC50 (CD25): < 1 nM

B6: MAdCAM antibody Clone ID 23 of Table 6 (scFv) (scFv)
scFv: EVQLLESGGGLVQPGGSLRLSCAASGFTFSSYAMHWVRQAPGKGLEWVSGISGSGGSAYYADSVKGRFTISRDNSKNTLYLQMNSLRAEDTAVYYCATSQAPVDYYYYGMDVWGQGTTVTVSSGGGGSGGGGSGGGGSGGGGSDIQMTQSPSSLSASVGDRVTITCRASQSISSWLAWYQQKPGKAPKLLIYAASNLQRGVPSRFSGSGSGTDFTLTISSLQPEDFATYYCQQSYSIPITFGQGTKVEIK
binding result (mouse MAdCAM protein): no binding
binding result (human MAdCAM protein): binds
binding result [1]: no binding
binding result [2]: binds

Results, then the binder that gave them:

EC50 (CD25): < 1 nM
B2: IL-2M SEQ ID NO: 54 (Fc fusion)
chain: B1 chain with L56I
notes: also called IL-2 L56I N88D V69A, Q74P, C125S-G4Sx4-Fc

EC50 (CD25): < 1 nM
B4: IL-2M SEQ ID NO: 56 (Fc fusion)
chain: B1 chain with L118I
notes: also called IL-2 L118I N88D V69A, Q74P, C125S-G4Sx4-Fc

EC50 (CD25): < 1 nM
B5: IL-2M SEQ ID NO: 55 (Fc fusion)
chain: B1 chain with L80I
notes: also called IL-2 L80I N88D V69A, C125S Q74P-G4Sx4-Fc
